Laboratory results as given in PMC8191777.
Numbering of substitutions follows the chain as printed.

Experiments:
[1] = molecular target: T1, TbTRF-lMyb280-382 (Trypanosoma brucei) (UniProt Q4VHG6); experiment: EMSA
T1 sequence: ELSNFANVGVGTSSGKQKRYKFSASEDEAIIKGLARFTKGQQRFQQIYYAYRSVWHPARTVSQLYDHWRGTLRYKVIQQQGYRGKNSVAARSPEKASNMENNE

[2] = molecular target: T2, TbTRF-lMyb280-382 R298E R298E (Trypanosoma brucei) (UniProt Q4VHG6); experiment: EMSA
T2 sequence: T1 sequence with R19E

| Sequence | Kd [1] | Kd [2] |
| --- | --- | --- |
| CCCUAACCCUAACCCUAACCCUAACCCUAACCCUAACCCUAACCCUAACCCUAACCCUAACCCUAACCCUAA [ss(CCCUAA)12] | 17200 nM | 36 nM |
| UUAGGGUUAGGGUUAGGGUUAGGGUUAGGGUUAGGGUUAGGGUUAGGGUUAGGGUUAGGGUUAGGGUUAGGG [ss(UUAGGG)12] | 268 nM | 5 nM |
